From patent publication US20040072184A1

Columns and labels:
[1] = target: T1, CapK peptide; assay: cell-based or functional assay
T1 sequence (peptide): CGRTGRRNSI

[2] = target: T2, PKB-sub peptide; assay: cell-based or functional assay
T2 sequence (peptide): CKRPRAASFAE

kinase activity, CapK sub (CCPM1); GST-SGK2 from Hi5 cells treated with Calyculin A [1]: 59300 CCPM1 | kinase activity, CapK sub (CCPM1); GST-SGK2 from Hi5 cells treated with Microcysteine [1]: 330 CCPM1 | kinase activity, CapK sub (CCPM1); GST-SGK2 from Hi5 cells treated with Okadaic Acid [1]: 162000 CCPM1 | kinase activity, CapK sub (CCPM1); GST-SGK2 from untreated Hi5 cells [1]: 1080 CCPM1 | kinase activity, PKB sub (CCPM1); GST-SGK2 from Hi5 cells treated with Calyculin A [2]: 92500 CCPM1 | kinase activity, PKB sub (CCPM1); GST-SGK2 from Hi5 cells treated with Microcysteine [2]: 217 CCPM1 | kinase activity, PKB sub (CCPM1); GST-SGK2 from Hi5 cells treated with Okadaic Acid [2]: 132000 CCPM1 | kinase activity, PKB sub (CCPM1); GST-SGK2 from untreated Hi5 cells [2]: 979 CCPM1
B1: GST-SGK2 fusion protein (enzyme, not shown: a dimerising Fc or GST)
chain: MNSSPAGTPSPQPSRANGNINLGPSANPNAQPTDFDFLKVIGKGNYGKVLLAKRKSDGAFYAVKVLQKKSILKKKEQSHIMAERSVLLKNVRHPFLVGLRYSFQTPEKLYFVLDYVNGGELFFHLQRERRFLEPRARFYAAEVASAIGYLHSLNIIYRDLKPENILLDCQGHVVLTDFGLCKEGVEPEDTTSTFCGTPEYLAPEVLRKEPYDRAVDWWCLGAVLYEMLHGLPPFYSQDVSQMYENILHQPLQIPGGRTVAACDLLQSLLHKDQRQRLGSKADFLEIKNHVFFSPINWDDLYHKRLTPPFNPNVTGPADLKHFDPEFTQEAVSKSIGCTPDTVASSSGASSAFLGFSYAPEDDDILDC
